Columns and labels:
Experiment in all cases: FRET or BRET; FRET efficiency by flow cytometry in co-transfected HEK-293T cells 24 h post-transfection; donor mCerulean fusion, acceptor mEYFP fusion; Cer alone as negative control
[1] = biological target: EYFP-Pen (Drosophila melanogaster) (UniProt P52295)
[2] = biological target: EYFP-Tsn (Drosophila melanogaster)
[3] = biological target: EYFP-Hsp26 (Drosophila melanogaster) (UniProt P02517)
UniProt P02517, sequence (P02517 whole entry): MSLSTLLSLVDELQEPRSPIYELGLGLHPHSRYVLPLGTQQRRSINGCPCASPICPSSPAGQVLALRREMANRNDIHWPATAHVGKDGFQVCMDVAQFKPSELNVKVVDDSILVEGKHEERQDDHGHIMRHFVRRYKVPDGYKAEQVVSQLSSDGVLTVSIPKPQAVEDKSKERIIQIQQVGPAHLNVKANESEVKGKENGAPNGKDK

UniProt P52295, sequence (P52295 whole entry): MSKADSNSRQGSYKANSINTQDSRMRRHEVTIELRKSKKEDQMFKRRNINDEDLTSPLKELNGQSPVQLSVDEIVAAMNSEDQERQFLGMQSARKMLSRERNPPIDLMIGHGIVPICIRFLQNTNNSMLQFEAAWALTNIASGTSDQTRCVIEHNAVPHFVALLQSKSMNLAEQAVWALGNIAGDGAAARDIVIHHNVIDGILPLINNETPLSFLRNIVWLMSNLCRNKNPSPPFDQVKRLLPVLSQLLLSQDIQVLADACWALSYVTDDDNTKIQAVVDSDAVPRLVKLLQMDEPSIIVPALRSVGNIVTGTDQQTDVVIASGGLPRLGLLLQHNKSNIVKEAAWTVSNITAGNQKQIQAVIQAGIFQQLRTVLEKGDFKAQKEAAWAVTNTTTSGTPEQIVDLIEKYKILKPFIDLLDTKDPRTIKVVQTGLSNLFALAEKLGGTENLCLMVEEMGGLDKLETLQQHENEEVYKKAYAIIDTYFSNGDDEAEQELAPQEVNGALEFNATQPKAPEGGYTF

**Q.** For “Cer-NtFT4 (mCerulean fusion of NtFT4) (natural protein)”, which FRET efficiency [1] is on record?
**A.** 7.9%

**Q.** And the FRET efficiency [2]?
**A.** 3.8%

**Q.** What about the FRET efficiency [3] of the same substance?
**A.** 13.8%
